Measurements as given in patent US20220048967A1 (published 2022).
Numbered stars: 1 amine (or outer) side, 2 acyl side, 3 side chain; on linkers, the order of the positions; unused ones are H or OH. Square brackets hold non-standard residues; d marks the D form. Side chains are listed from the residue outwards. Ends that are not written are not given here. * marks the point of attachment. C18 diacid = O=C(O)CCCCCCCCCCCCCCCCC(=O)*; γGlu = O=C(O)[C@H](CCC(=O)[*:2])N[*:1]; AEEA = NCCOCCOCC(=O)O; Aib = CC(C)(N)C(=O)O

Tests used:
[1] = biological target: Pro-Link-tagged Human GLP-1R (human, UniProt P43220 24-463); assay: cell-based or functional assay
[2] = biological target: human GLP-1 receptor (human, UniProt P43220 24-463); assay: cell-based or functional assay

| Binder | hGLP1R B-Arrestin2 % Top [1] [%] | hGLP1R B-Arrestin2 Rel EC50 [1] [nM] | hGLP1R GTPgS % Top [2] [%] | hGLP1R GTPgS Rel EC50 [2] [nM] |
| --- | --- | --- | --- | --- |
| YXEGTFTSDYSILLDKKAQXAFIEYLIEGGPSSGAPPPS (Aib2, K17 conjugated to (2-[2-(2-Amino-ethoxy)-ethoxy]-acetyl)2-(γ-Glu)-CO-(CH2)16-CO2H, Aib20, C-terminal amide (NH2)) [Example 315] | 25.4 | 19.9 | 44.2 | 0.601 |
| XXEGTFTSDYSIXLDXKAQXAFVEYLIEGGPSSGAPPPS (D-Tyr1, Aib2, αMeL13, Orn16, K17 conjugated to (2-[2-(2-Amino-ethoxy)-ethoxy]-acetyl)2-(γ-Glu)-CO-(CH2)18-CO2H, Aib20, C-terminal amide (NH2)) [Example 360] | 25.8 | 39.5 |  |  |
| FXEGTFTSDYSIXLDKKAQXEFIEYLIAGGPSSGAPPPS (not fully specified; Aib2, αMeL13, K17 conjugated to (2-[2-(2-Amino-ethoxy)-ethoxy]-acetyl)2-(γ-Glu)-CO-(CH2)18-CO2H, Aib20, C-terminal amide (NH2)) [Example 338] | 47 | 18.9 |  |  |
| Y[Aib]EGTFTSDYSILLDKK([AEEA-AEEA-γGlu-C18 diacid])AQ[Aib]AFIEYLIAGGPSSGAPPPS-NH2 (N-terminus assumed; SMILES CC[C@H](C)[C@H](NC(=O)[C@H](CC(C)C)NC(=O)[C@H](Cc1ccc(O)cc1)NC(=O)[C@H](CCC(=O)O)NC(=O)[C@@H](NC(=O)[C@H](Cc1ccccc1)NC(=O)[C@H](C)NC(=O)C(C)(C)NC(=O)[C@H](CCC(N)=O)NC(=O)[C@H](C)NC(=O)[C@H](CCCCNC(=O)COCCOCCNC(=O)COCCOCCNC(=O)CC[C@H](NC(=O)CCCCCCCCCCCCCCCCC(=O)O)C(=O)O)NC(=O)[C@H](CCCCN)NC(=O)[C@H](CC(=O)O)NC(=O)[C@H](CC(C)C)NC(=O)[C@H](CC(C)C)NC(=O)[C@@H](NC(=O)[C@H](CO)NC(=O)[C@H](Cc1ccc(O)cc1)NC(=O)[C@H](CC(=O)O)NC(=O)[C@H](CO)NC(=O)[C@@H](NC(=O)[C@H](Cc1ccccc1)NC(=O)[C@@H](NC(=O)CNC(=O)[C@H](CCC(=O)O)NC(=O)C(C)(C)NC(=O)[C@@H](N)Cc1ccc(O)cc1)[C@@H](C)O)[C@@H](C)O)[C@@H](C)CC)[C@@H](C)CC)C(=O)N[C@@H](C)C(=O)NCC(=O)NCC(=O)N1CCC[C@H]1C(=O)N[C@@H](CO)C(=O)N[C@@H](CO)C(=O)NCC(=O)N[C@@H](C)C(=O)N1CCC[C@H]1C(=O)N1CCC[C@H]1C(=O)N1CCC[C@H]1C(=O)N[C@@H](CO)C(N)=O) [Example 316] | 26.1 | 6.08 | 56.7 | 0.766 |
| Y[Aib]EGTFTSDYSILLDKK([AEEA-AEEA-γGlu-C18 diacid])AQ[Aib]AFIEYLIEGG-NH2 (N-terminus assumed; SMILES CC[C@H](C)[C@H](NC(=O)[C@H](CC(C)C)NC(=O)[C@H](Cc1ccc(O)cc1)NC(=O)[C@H](CCC(=O)O)NC(=O)[C@@H](NC(=O)[C@H](Cc1ccccc1)NC(=O)[C@H](C)NC(=O)C(C)(C)NC(=O)[C@H](CCC(N)=O)NC(=O)[C@H](C)NC(=O)[C@H](CCCCNC(=O)COCCOCCNC(=O)COCCOCCNC(=O)CC[C@H](NC(=O)CCCCCCCCCCCCCCCCC(=O)O)C(=O)O)NC(=O)[C@H](CCCCN)NC(=O)[C@H](CC(=O)O)NC(=O)[C@H](CC(C)C)NC(=O)[C@H](CC(C)C)NC(=O)[C@@H](NC(=O)[C@H](CO)NC(=O)[C@H](Cc1ccc(O)cc1)NC(=O)[C@H](CC(=O)O)NC(=O)[C@H](CO)NC(=O)[C@@H](NC(=O)[C@H](Cc1ccccc1)NC(=O)[C@@H](NC(=O)CNC(=O)[C@H](CCC(=O)O)NC(=O)C(C)(C)NC(=O)[C@@H](N)Cc1ccc(O)cc1)[C@@H](C)O)[C@@H](C)O)[C@@H](C)CC)[C@@H](C)CC)C(=O)N[C@@H](CCC(=O)O)C(=O)NCC(=O)NCC(N)=O) [Example 267] | 16.5 | 9.01 | 62.3 | 0.867 |
| YXEGTXTSDYSIXLDEKAQXEFIXYLIEGGPSSGAPPPS (Aib2, αMeF(2F)6, αMeL13, K17 conjugated to (2-[2-(2-Amino-ethoxy)-ethoxy]-acetyl)2-(γ-Glu)-CO-(CH2)18-CO2H, Aib20, D-Glu24, C-terminal amide (NH2)) [Example 1] | 105 | 5 | 91.1 | 0.235 |
| XXEGTFTSDYSIXLDKKAQXAFIXYLIEGGPSSGAPPPS (D-Tyr1, Aib2, αMeL13, K17 conjugated to (2-[2-(2-Amino-ethoxy)-ethoxy]-acetyl)2-(γ-Glu)-CO-(CH2)18-CO2H, Aib20, D-Glu24, C-terminal amide (NH2)) [Example 356] |  | > 10500 |  |  |
| XXEGTFTSDYSIXLDXKAQXAFIXYLIEGGPSSGAPPPS (D-Tyr1, Aib2, αMeL13, Orn16, K17 conjugated to (2-[2-(2-Amino-ethoxy)-ethoxy]-acetyl)2-(γ-Glu)-CO-(CH2)18-CO2H, Aib20, D-Glu24, C-terminal amide (NH2)) [Example 357] | 18.2 | 118 |  |  |
| YXEGTXTSDYSIXLDXKAQXEFIXYLIEGGPSSGAPPPS (Aib2, αMeF(2F)6, αMeL13, Orn16, K17 conjugated to (2-[2-(2-Amino-ethoxy)-ethoxy]-acetyl)2-(γ-Glu)-CO-(CH2)16-CO2H, Aib20, D-Glu24, C-terminal amide (NH2)) [Example 2] | 96.1 | 8.82 | 95.9 | 0.642 |
| YXEGTXTSDXSIXLDXKAQXEFIXXLIEGGPSSGAPPPS (Aib2, αMeF(2F)6, 4Pal10, αMeL13, Orn16, K17 conjugated to (2-[2-(2-Amino-ethoxy)-ethoxy]-acetyl)2-(γ-Glu)-CO-(CH2)16-CO2H, Aib20, D-Glu24, αMeY25, C-terminal amide (NH2)) [Example 4] | 92.4 | 4.8 | 86.9 | 0.245 |
| XXEGTFTSDYSIXLDKKAQXAFVXYLIAGGPSSGAPPPS (D-Tyr1, Aib2, αMeL13, K17 conjugated to (2-[2-(2-Amino-ethoxy)-ethoxy]-acetyl)2-(γ-Glu)-CO-(CH2)18-CO2H, Aib20, D-Glu24, C-terminal amide (NH2)) [Example 361] | 20.2 | 269 |  |  |
| XXEGTFTSDYSIXLDXKAQXAFVXYLIAGGPSSGAPPPS (D-Tyr1, Aib2, αMeL13, Orn16, K17 conjugated to (2-[2-(2-Amino-ethoxy)-ethoxy]-acetyl)2-(γ-Glu)-CO-(CH2)18-CO2H, Aib20, D-Glu24, C-terminal amide (NH2)) [Example 362] |  | > 11000 |  |  |
| XXEGTFTSDYSIXLDXKAQXAFVXYLIAGGPSSGAPPPS (D-Tyr1, Aib2, αMeL13, Orn16, K17 conjugated to (2-[2-(2-Amino-ethoxy)-ethoxy]-acetyl)2-(γ-Glu)-CO-(CH2)16-CO2H, Aib20, D-Glu24, C-terminal amide (NH2)) [Example 364] |  | > 12000 |  |  |
| Y[Aib]EGTFTSDYSILLDKK([AEEA-AEEA-γGlu-C18 diacid])AQ[Aib]AFIEYLIEGGPSSG-NH2 (N-terminus assumed; SMILES CC[C@H](C)[C@H](NC(=O)[C@H](CC(C)C)NC(=O)[C@H](Cc1ccc(O)cc1)NC(=O)[C@H](CCC(=O)O)NC(=O)[C@@H](NC(=O)[C@H](Cc1ccccc1)NC(=O)[C@H](C)NC(=O)C(C)(C)NC(=O)[C@H](CCC(N)=O)NC(=O)[C@H](C)NC(=O)[C@H](CCCCNC(=O)COCCOCCNC(=O)COCCOCCNC(=O)CC[C@H](NC(=O)CCCCCCCCCCCCCCCCC(=O)O)C(=O)O)NC(=O)[C@H](CCCCN)NC(=O)[C@H](CC(=O)O)NC(=O)[C@H](CC(C)C)NC(=O)[C@H](CC(C)C)NC(=O)[C@@H](NC(=O)[C@H](CO)NC(=O)[C@H](Cc1ccc(O)cc1)NC(=O)[C@H](CC(=O)O)NC(=O)[C@H](CO)NC(=O)[C@@H](NC(=O)[C@H](Cc1ccccc1)NC(=O)[C@@H](NC(=O)CNC(=O)[C@H](CCC(=O)O)NC(=O)C(C)(C)NC(=O)[C@@H](N)Cc1ccc(O)cc1)[C@@H](C)O)[C@@H](C)O)[C@@H](C)CC)[C@@H](C)CC)C(=O)N[C@@H](CCC(=O)O)C(=O)NCC(=O)NCC(=O)N1CCC[C@H]1C(=O)N[C@@H](CO)C(=O)N[C@@H](CO)C(=O)NCC(N)=O) [Example 266] | 17.1 | 16 | 63.4 | 0.865 |
| YXEGTFTSDYSIXLDKKAQXAFIEYLIEGGPSSG (Aib2, αMeL13, K17 conjugated to (2-[2-(2-Amino-ethoxy)-ethoxy]-acetyl)2-(γ-Glu)-CO-(CH2)16-CO2H, Aib20, C-terminal amide (NH2)) [Example 300] | 38.4 | 5.4 | 85.6 | 0.405 |
| YXEGTFTSDYSIXLDEKAQXAFIEYLIEGGPSSG (Aib2, αMeL13, K17 conjugated to (2-[2-(2-Amino-ethoxy)-ethoxy]-acetyl)2-(γ-Glu)-CO-(CH2)16-CO2H, Aib20, C-terminal amide (NH2)) [Example 303] | 47.7 | 17.9 | 74.3 | 0.547 |
| YXEGTXTSDYSILLDKKAQXAFIEYLIEGGPSSG (Aib2, αMeF(2F)6, K17 conjugated to (2-[2-(2-Amino-ethoxy)-ethoxy]-acetyl)2-(γ-Glu)-CO-(CH2)16-CO2H, Aib20, C-terminal amide (NH2)) [Example 302] | 98.4 | 2.19 | 98.6 | 0.268 |
| YXEGTXTSDYSILLDKKAQXAFIEYLIEGGPSSG (Aib2, αMeF6, K17 conjugated to (2-[2-(2-Amino-ethoxy)-ethoxy]-acetyl)2-(γ-Glu)-CO-(CH2)16-CO2H, Aib20, C-terminal amide (NH2)) [Example 301] | 93.7 | 2.67 | 91.4 | 0.435 |
| Y[Aib]EGTFTSDYSILLDKK([AEEA-AEEA-γGlu-C18 diacid])AQ[Aib]AFIEYLIAGGPSSG-NH2 (N-terminus assumed; SMILES CC[C@H](C)[C@H](NC(=O)[C@H](CC(C)C)NC(=O)[C@H](Cc1ccc(O)cc1)NC(=O)[C@H](CCC(=O)O)NC(=O)[C@@H](NC(=O)[C@H](Cc1ccccc1)NC(=O)[C@H](C)NC(=O)C(C)(C)NC(=O)[C@H](CCC(N)=O)NC(=O)[C@H](C)NC(=O)[C@H](CCCCNC(=O)COCCOCCNC(=O)COCCOCCNC(=O)CC[C@H](NC(=O)CCCCCCCCCCCCCCCCC(=O)O)C(=O)O)NC(=O)[C@H](CCCCN)NC(=O)[C@H](CC(=O)O)NC(=O)[C@H](CC(C)C)NC(=O)[C@H](CC(C)C)NC(=O)[C@@H](NC(=O)[C@H](CO)NC(=O)[C@H](Cc1ccc(O)cc1)NC(=O)[C@H](CC(=O)O)NC(=O)[C@H](CO)NC(=O)[C@@H](NC(=O)[C@H](Cc1ccccc1)NC(=O)[C@@H](NC(=O)CNC(=O)[C@H](CCC(=O)O)NC(=O)C(C)(C)NC(=O)[C@@H](N)Cc1ccc(O)cc1)[C@@H](C)O)[C@@H](C)O)[C@@H](C)CC)[C@@H](C)CC)C(=O)N[C@@H](C)C(=O)NCC(=O)NCC(=O)N1CCC[C@H]1C(=O)N[C@@H](CO)C(=O)N[C@@H](CO)C(=O)NCC(N)=O) [Example 272] |  | > 12000 | 66.5 | 0.651 |
